# Experimental data as given in patent US20250108100A1, “C-TERMINAL FRAGMENT OF APOLIPOPROTEIN E AND APPLICATION THEREOF IN INHIBITING y-SECRETASE ACTIVITY” (SYNPHATEC (SHANGHAI) BIOPHARMACEUTICAL TECHNOLOGY CO., LTD., priority 2022, published 2025).
# Entries after “also recorded” stand apart in the source; their conditions may differ.
# System: 5×FAD mice
# Test: Amyloid plaques in brain of 5×FAD mice after AAV neuronal expression
# Type: in vivo, mouse
# Method: 0-7 months old C57 wild-type mice and AD model mice (5×FAD mice [Tg6799], mice expressing APP and PS1 comprising pathogenic mutations. The expressed APP comprises three mutations: K670N/M671L, I716V, V717I; and PS1 comprises two mutations: M146L, L286V). The mice were given sufficient food and water, and were reared at room temperature with a 12 h/12 h light-dark cycle, and the feeding environment reached the SPF (Specific Pathogen Free) standard.
# • a) The brain was taken by perfusion. The mice were perfused at the heart, the blood was washed out with 20 ml PBS, and then the mice were perfused with 20 ml 4% PFA. • b) Fixation and dehydration. The mice were fixed with 4% PFA at 4° C. for 24 hours, and then dehydrated with 30% sucrose at 4° C. • c) Mouse brain slices. After 24 hours of dehydration, the mice brain was cut into slices at a thickness of 40 μm, stored in frozen buffer solution or used for subsequent immunohistochemistry. • d) THS staining. The mouse brain slices were washed three times with ddH2O, 5 minutes each; soaked in 1% THS aqueous solution for 10 minutes; washed twice with 80% ethanol, each time for 3 minutes; washed once with 95% ethanol for 3 minutes. Immunohistochemistry was performed subsequently. If THS staining is not performed, the following immunohistochemistry was performed directly. • e) Immunohistochemistry. The mouse brain slices were washed three times with 1×PBS for 10 minutes each time; the cell membrane was permeated using 0.1% Triton-X100; the brain slices were blocked by using 5% donkey or goat serum; then the primary antibody was incubated at 4° C., shaken overnight (12-16 h); washed three times with 1×PBS for 10 minutes each time; the secondary antibody was incubated, shaken at room temperature for 1-2 h; washed three times with 1×PBS for 10 minutes each time. • f) Patching and sealing. • g) Imaging, 24 hours post sealing. • h) Images were processed and signal density was analyzed by Image J.
# Adeno-associated virus AAV-CT (AAV2/9-hSyn-ApoE CT) and AAV-GFP (AAV2/9-hSyn-EGFP-WPRE-pA) expressed in neurons were purchased from Tertu Biotechnology Company.
# 1 μl of the adeno-associated virus prepared above was injected into the cerebral cortex (x, y, z, +/−1.6, 0, −1) and hippocampus (x, y, z, +/−1.5, −2, −1.5) of 1-month-old mice by using a stereotaxic injection device.
# Human APP and PS1 with five fAD mutations are expressed in neurons of 5×FAD mice: K670N/M671L+I716V+V717I mutations in APP and M146L+L286V mutations in PS1 (Oakley et al., 2006). All mice were housed under a 12 h light-dark cycle (light from 8 am to 8 pm) with ad libitum access to food and water. All mouse procedures were performed in accordance with the Guide for the Care and Use of Laboratory Animals of the Chinese Academy of Sciences and the National Institutes of Health.
# Mice were anesthetized with isoflurane and perfused with 4% PFA. Dissected mouse brains were fixed overnight in 4% PFA and cryoprotected overnight in 30% sucrose. A cryostat (Leica, CM3050S) was used to obtain frozen brain slices ([…]) from fixed and cryoprotected mouse brains. Floating slices were washed 3 times with ddH2O and then incubated with 1% THS (SIGMA) in water for 5 minutes at room temperature. Next, the slices were washed twice with 80% ethanol and once with 95% ethanol for 3 minutes each. The samples were washed with ddH2O and 3 times with 1×PBS before IHC.
# After being deeply anesthetized with isoflurane, mice (5 weeks old) were placed in a stereotaxic apparatus (RWD Instruments). The zero point (x, y, z, 0, 0, 0) is Bregma. Lentivirus (lentivirus-GFP, lentivirus-ApoE and lentivirus-ApoE-IRES-GFP) and AAV (AAV2/9-hSyn-EGFP-WPRE-pA and AAV2/9-hSyn-ApoECT; purchased from Shanghai Taitool Bioscience Co. Ltd.) were injected into the cortex (x, y, z, +/−1.6, 0, −1) or hippocampus (x, y, z, +/−1.5, −2, −1.5), injected 1 ul on each injection site. The mice were then returned to their cages for rehabilitation after surgery.
molecule,measurement,setting,value
"ApoE CT: C-terminal fragment of ApoE, positions 216-299 of SEQ ID NO: 12; SEQ ID NO: 33 (protein) ARMEEMGSRTRDRLDEVKEQVAEVRAKLEEQAQQIRLQAEAFQARLKSWFEPLVEDMQRQWAGLVEKVQAAVGTSAAPVPSDNH",average plaque size,"AAV at 4 weeks, after 10 weeks, subiculum, vs GFP",significantly reduced
same,average area of each amyloid plaque,"AAV at 4 weeks, six months expression, subiculum, vs GFP",smaller
same,percentage of total amyloid plaque area,"after 10 weeks, subiculum",significantly reduced
same,plaque density,"after 10 weeks, subiculum",significantly reduced
same,density of amyloid plaques,six months expression,decreases; also recorded: lower
same,proportion of total area of amyloid plaques,six months expression,smaller proportion
same,fluorescence intensity of amyloid plaques,"six months expression, THS",weaker
